Data published in the DeepSol protein solubility set.

Test: soluble on expression in E. coli; label from the status in PepcDB or PDB records

| Sequence | soluble on expression in E. coli |
| --- | --- |
| MTDKDLLHQKYYHGLLPREDIQEMLNKPGQFLLRTSEPVKGEKRQFVLSVVGEKNTSANHFVVREADHKVYVDKIGFPTIIELVNHYVSTKESFSTKDGTVKVVLKHAVERQKWELYHEDVELTKKLGEGAFGEVWKGKLLKILDANHQPVLVAVKTAKLESMTKEQIKEIMREARLMRNLDHINVVKFFGVAAGTEPLYVIMELADGGALDSALGKLHFPMIKKYELIYQAANGLAYIHEKNLMHRDVAARNCLYGGGQVKIADFGLSREGADYTMDLKKKVPIRWLPPETIRSGLYTPKTDVFAFGVMAWEITEDGKEPYPGFKVIEVAMKVLQGYRMPFSPEVNKEFAEFILTKCWPEKYEDRLPMKDICKWMKSSVKAQGGDTGPGGMMSKFGKKIKRSNSRESKSKSSTMTAAHGHDQGAMTAIEK | not soluble |
| MREKFYEKYYYAKSDIEGQDGGVVTAFLKYLLENGKIDGAIVVGDECWKPVSLVVQNAEDLLKTAKSKYAISTLDALRKAGEMGLEKVALEHHHHHH | not soluble |
| MRKLISTIIVSTLLIGGCSTVHKEAKHSSQSIPEEVPASQYKGQGFQPVAEKSAIAHAKKYREEYEKLGEQFFKDNFSLNVKATNVVGSGDGVEVYVHCDDHDIVFNASIPFDKEAIHEEGSMRSNDNGDTMSNMVGTVLSGFEYKAQKEKYDNLTKFFKDNEEKYQYTGFTKEAIHKTQNVGYQNEYYYLAGNVTNINNYRKYYEPLIKKDSKNFKEGMKKANEATNFKAKIEVVSTLFSTKSDFTKNNSKKDLLFLSDDLYHYKEKPENTNITLQLSEPKINSTRAFYDANNPLEYGVHKHELEHHHHHH | soluble |
| MGSDKIHHHHHHMTTASTVYHYCGAESFFSIVRNGRLWVSDARKTNDRRELEWFKDLALKHIAKSAATGDKMLSDLHLALKVRFELLEDVSDYYVCCFSEKKDSVPQWVAYADRGTGFAIGFDVNALRKKIGAALLSPSYAPVPFGVGANGWGFGPVAYAEEGVANAQIDDLMSTIVSAPFVGEDVTDSARDHIDRVCAFCKHPDFQTEHEWRIVCNTSFLKKNAGLTGTDMLPDTKWRKGGYGLTPYRETVDVLDCVKEVIVGPGNADRDSIEYVKQFLRFSGVKAEVFLSVSPYR | not soluble |
| MYAFVRFLEDNVCYALPVSCVRDFSPRSRLDFDNQKVYAVYRGPEELGAGPESPPRAPRDWGALLLHKAQILALAEDKSDLENSVMQKKIKIPKLSLNHVEEDGEVKDYGEEDLQLRHIKRPEGRKPSEVAHKSIEAVVARLEKQNGLSLGHSTCPEEVFVEASPGTEDMDSLEDAVVPRALYEELLRNYQQQQEEMRHLQQELERTRRQLVQQAKKLKEYGALVSEMKELRDLNRRLQDVLLLRLGSGPAIDLEKVKSECLEPEPELRSTFSEEANTSSYYPAPAPVMDKYILDNGKVHLGSGIWVDEEKWHQLQVTQGDSKYTKNLAVMIWGTDVLKNRSVTGVATKKKKDAVPKPPLSPHKLSIVRECLYDRIAQETVDETEIAQRLSKVNKYICEKIMDINKSCKNEERREAKYNLQ | soluble |
| MGSDKIHHHHHHMFRTFTEKRSEWKEQISEEIIPLIHRGMVNRKQWLLVNLKGRLWSGSLRDQFMFENIEWLRNYYKGEKLIVWAHNYHIRKNRSLLLELLRIKTVDHLLAKKYADRVFSVGFYAGSGTCLTPYKDLHEITMINQYHLELLLKELNGHTFFLPTNIGAKRNAWNKQAWWLLETRLLGMAPLVLKPIKAYDAIFFIKCVKPPQELGG | not soluble |
| MGSDKIHHHHHHMDVDLNELAGQFASGFLTVDGVYRTTLEAGRVLGHTRAYPTPKSGFLFALKGEASFVFNGTAYHLSPGKVVHGGKNMELIVKVGPAAFEYCLIHYTLHTRSNHPNDTDSHFLLEPGENLAITEKLDLLHRIKSTPGNFPEIQAKALFYTIFHDMLICARNRLNRESQLVIEQVVEYIHHHYMEPMTVKKLADMSGMGVKPFSYLFKKYIGMFPIDYLIQYRLKRAKNLLVSSNSSIADIAESIGYLDALYFSRLFKKHIGCSPTAFRAQMGNCPSDDQ | not soluble |
| MKVELTAIEARVIGCLIEKEVTTPDQYPLSLNALTNASNQKSNREPVMALSESDVLDAVDALIERRLVSDESAFNSRVSKYQHRFCNTEFGDLKLSEQEKGIICCMLLRGAQTPGEIRTRTNRLATFHDVKEVEAVLEHLASEEKGPLVVKLPREAGKRESRYMHLFCGEVDVSAMAAAVPATSSSSVRIAQLEQEVAELREELDALKAQVESLLS | not soluble |
| MKRLKNELNALVNRGVDRHLRLAVTGLSRSGKTAFITAMVNQLLNIHAGARLPLLSAVREERLLGVKRIPQRDFGIPRFTYDEGLAQLYGDPPAWPTPTRGVSEIRLALRYKSNDSLLRHFKDTSTLYLEIVDYPGEWLLDLPMLAQDYLSWSRQMTGLLNGQRGEWSAKWRMMCEGLDPLAPADENRLADIAAAWTDYLHHCKQQGLHFIQPGRFVLPGDMAGAPALQFFPWPDVDAWGESKLAQADKHTNAGMLRERFNYYCEKVVKGFYKNHFLRFDRQIVLVDCLQPLNSGPQAFNDMRLALTQLMQSFHYGQRTLFRRLFSPVIDKLLFAATKADHVTIDQHANMVSLLQQLIQDAWQNAAFEGISMDCLGLASVQATTSGIIDVNGEKIPALRGNRLSDGAPLTVYPGEVPARLPGQAFWDKQGFQFEAFRPQVMDVDKPLPHIRLDAALEFLIGDKLR | not soluble |
| MAHHHHHHMKQVKAAFEANKRVYESVLLTFKGVDGYDVYNCSVPFSYKGKTHIYGRVEKRDIWAASHVRLFEETGKDEFTAVPELSWELEDPYIAKINNEMIFGGTRVRKNGNAILSYYGYFYRGTPDELTYFTRGPGCMKDIRVLQLQDGRLGVFSRPRVGRKASIGFVILNSIDELGAEVIAKAPPLDILSENAWGGVNQAYLLSSGKVGCIGHYSYEDTNEKQQPQSVYVNYAFVLDPQSRAITGAKIIGTKSCYPPCEPKVPLLADCVFASGIVMRSDGKVDLYSGVGDSHEGRITIDYPFKGHGTIIGDLHFPMASSL | soluble |
| MGSDKIHHHHHHLAVLRYTVTNTGQLSVSGSWSASVKHPLIAVVFSSGRPDAPTLGKILKQLKKRYGIKNFNAVGHSAGSAAWANWAVTPDKQGMPQLRRLITIAGPFNGFPGMPGMNGGQHITLAKDGRPNVMSDRYKPLYDNRRYFPKTAAVLNLFGNLGKGTDGRVPVNSARSLRYVVAGRAKSYTEREITNSKAQHSQLHEHNPLVNRYLYEFLNNGKITN | not soluble |
| MYIDKDDFTAWMERIMDRFDMQDKKIDRVIKGRNCLDGEELLDNQDLCLLLKVAPRTLTRYRKKGILPFLMLDGRCYYRATDVHKLIREKTD | not soluble |
| MGSDKIHHHHHHMSLPETPTIRIGMAMWSHPGWKTVFPGLDAEARLTAYSRVFGTVEGNTSFYALPSAQQVSIWQRATPEDFRFTFKLPRRITHELSLRNCREEVLQFFRLFEPLMAKTGVWKIQLPARFGPESLSVLTQFLSLLPEGIGLGVEVRHRAFFAKGEAEKDFNRLLMDKGINRIIMDTRPVFALPAINEAITDAHQKKPRVPVHPLATGAHPVVRFIAQPHTPAAWGPGGKPADLGCADNLAFFAPWLGKLAGWLAEGRSPYLFIHTPDNSDAPLLASELAKQVAAHLQALHPGLPIPSVMLDSAESDGGQIGLGLQ | not soluble |
| MAHHHHHHMPSWCLIESDPAVFTELIQRFGAQGVAVEEIVQLEQEYLRVHTNVYGLILLFKWKARKEGAATDGVVVPDAPVFFVQQTVNNACATLSIVNILLNHKESIELGEVLGNFLSFTQDMNPYLRGTQVGECDALREAHNSFAPVELFSLDHSVPDAGDAYHFVSFVYKNSAIWELDGLQEGPILASDASDENYRDKLMEVVRKRIRDHSAEDTTGAGQGISFSLMAVVDDPLVLLERRIYEATLQEAPTHYLEEQLNQLTKQRAREKLENQRRRHNYVPMIVELLKALAEKGQLKGILDDALAKKSGQGAKQ | soluble |
| MERVNGEDIWQDREIRFDVDHKLLRLINGEIQVAKIEHVEDTKGNNGDRGTMRVTNLRLIWHAASMPRINITIGWNAITGVQSKQTTSLVTRNRGISNEAIYVLAKVSATTTKFEFIFTTTNPASHSKLFNTISSISRAYETTKMYRELKMRGVFIREDGTLKILPQETIIEKVNGVWNLSTETGSLGVFVITNIRVVWYAEMNIGYNVSVPYITLYSVRVRESKFGMALVLETTTSSGEYVLGFRVDPAERLQNLLKTVQSLHKAHLLKPIFGVSYVKEIAEKVEPRKDDDEIDIIDNNEDDVEIDDKIRPDAFASYFDGEHTATDEKQLPVLNPELGLAIEPIRNGFTLHDLWNIHVDV | not soluble |
